# Experimental data as given in IntAct's records for PubMed 24880343.
# B1: PAN2-PAN3 deadenylation complex subunit pan3 (Neurospora crassa (strain ATCC 24698 / 74-OR23-1A / CBS 708.71 / DSM 1257 / FGSC 987)), Q7SDP4 (parent)
# chain: MAATRYNSGDLRRQVGSPRAKNRDTKETLCRNVVIYGHCRWEDSGCTFNHDQNKASVSQTDLNSNRRVFNVESPSFTPANQQQSAGKKSTFSSQAASAAPFTPRGVGTSTPTLQQANDSTIFNPAAIREFTPQNYDVGNTISQNGAQHVTQDGGLYSDPFSISSLGQTMPPQGQYNPYANDPNNLAGAGAGLYQPAGFGNGLVHPPNYHLYQPPSELYRPSLQPYQRTTYDFFIPKDRRENLQKKLFHMQQLLPNSGLPNLDRWHSLFPLDTKATRNSTCFGYPSWMYKAQNNKNGRHFALRRIEGYRLTNEKAILNVTKEWKKIINANIVTVHEAFTTEFFGDSSLIFVYDFHPLSETLYDHHFPPNNSHNRLRNTNKIPENLLWSYVCQIANALLAIHNAKLAARCLELSKIIWENNRIRLAACSILDVLHHDSPNRKTIEELQQEDFVKFGRIILALATNTPTLNFNNIDAALATIVPRYSTQLRGVLEWLIKPSAPGETKTVETLLGGITTHLANFANFVMQESDEKEFHLMRELENGRIARLMFKLSVVNERGDSCGVHNWSETGERLLLKLFRDYVFHQVDADGKARLDTNHYLNCLSKLDASSEEQILLTSRDNATVFVVSYRSIRQMLDRAYGELGKESKPSATGATI
# partner: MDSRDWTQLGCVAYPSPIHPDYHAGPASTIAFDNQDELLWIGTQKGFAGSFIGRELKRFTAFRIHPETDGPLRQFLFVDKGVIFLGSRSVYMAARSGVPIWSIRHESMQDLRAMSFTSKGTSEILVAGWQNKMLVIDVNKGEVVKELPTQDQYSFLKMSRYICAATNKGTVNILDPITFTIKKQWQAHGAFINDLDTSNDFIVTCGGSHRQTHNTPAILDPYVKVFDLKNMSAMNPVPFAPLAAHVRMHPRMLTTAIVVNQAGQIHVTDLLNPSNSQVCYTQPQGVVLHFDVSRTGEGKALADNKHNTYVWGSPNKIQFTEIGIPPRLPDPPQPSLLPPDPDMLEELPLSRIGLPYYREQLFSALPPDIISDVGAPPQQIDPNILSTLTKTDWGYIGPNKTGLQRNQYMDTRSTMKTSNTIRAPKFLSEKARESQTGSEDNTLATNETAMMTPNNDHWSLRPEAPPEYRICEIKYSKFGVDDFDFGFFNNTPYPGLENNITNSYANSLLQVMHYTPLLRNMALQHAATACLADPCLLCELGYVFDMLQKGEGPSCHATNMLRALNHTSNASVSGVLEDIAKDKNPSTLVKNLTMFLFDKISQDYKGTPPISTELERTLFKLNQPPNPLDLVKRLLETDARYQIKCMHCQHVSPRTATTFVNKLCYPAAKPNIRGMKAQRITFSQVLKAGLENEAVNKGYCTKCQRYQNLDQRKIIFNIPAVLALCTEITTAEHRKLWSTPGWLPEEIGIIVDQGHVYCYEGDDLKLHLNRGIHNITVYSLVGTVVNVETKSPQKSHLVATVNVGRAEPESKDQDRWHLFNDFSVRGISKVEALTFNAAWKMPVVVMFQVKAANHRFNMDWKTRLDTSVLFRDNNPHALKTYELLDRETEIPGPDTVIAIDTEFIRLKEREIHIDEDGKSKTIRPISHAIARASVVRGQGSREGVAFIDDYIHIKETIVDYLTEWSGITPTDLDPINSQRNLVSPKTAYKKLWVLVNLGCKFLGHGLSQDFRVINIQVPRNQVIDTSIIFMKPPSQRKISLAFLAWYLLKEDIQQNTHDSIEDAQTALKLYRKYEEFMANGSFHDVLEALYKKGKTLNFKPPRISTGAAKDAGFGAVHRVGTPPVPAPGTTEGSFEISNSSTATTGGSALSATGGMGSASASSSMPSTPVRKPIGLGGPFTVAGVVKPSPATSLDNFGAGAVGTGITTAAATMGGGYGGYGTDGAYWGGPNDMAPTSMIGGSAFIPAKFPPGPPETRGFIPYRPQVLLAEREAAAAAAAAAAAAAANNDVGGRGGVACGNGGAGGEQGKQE
# B2: PAN2-PAN3 deadenylation complex subunit PAN3 (Drosophila melanogaster (Fruit fly)), Q95RR8 (parent)
# chain: MCSTYGLLSFEFSDTAAMDPIFFSPTNGIPSESKLATYMNRQNVATPSGYGLNNGFSLLNLDSPLNKKSQVTPQSPEFIPTRLGSTPNFYAPYHNAPMQLSNGLNGVNGLTAAAAAAAAAAAAAAAAVPSSTSSASSASVTISKTANGGASMLALQKTASIASVTIAQQQPQHPQKQQQHPPSVGGGAVSAASAPIAISGAPPNPAAAPFVSSMSAQTPLKGRGAMMRQESPTAAMISGAGPGEKSPPHGMTPHGASPIPSALPTSVHQENVGGTIYFYPTANAQNSQPVVNSMVVDGTHPALHGVSAVAPMSAGVPAAMMYTGHVYPGPSSNVVTMQPKTLLESAFFMPDEMRAEVLARNEISNLIMDAAEAAQHALPLEVENYHALYPLEPPAQPLHAKLTFPATTYRATHNTTGYKYCLRRIHGFRLQSTKCMTLVEMWKKLQHTNVVQLREVFTTKAFGDNSLVLVYDYHPGSQTLLAKYFTPAPETNGYTDPFQGEARPFSHKSNMQRTSNGPLLPEATIWSIIMQLTAGLKAIHHAGLACKVLDPTKIIVTGKRVRFSSCCISDITQFDPNASNPLALVNMHQQDDLTALGRLVLALACRCLQSVQRDNVQSSIDMVTRNYSTDLRNFIVYLFTTNNRRSVTDLMPMIGARFYTQLDALQSKIDMQEDELAKEMENGRLYRILVKLNSINERPDFNLDCTWSETGDRYMLKLFRDYLFHSVTEDGRPWLDHAHIVQCLNKLDAGSIERVQLMSRDEQSVLIVSYAELKNCLENAFSELMSSAAN
# B3: PAN2-PAN3 deadenylation complex catalytic subunit pan2 (Neurospora crassa (strain ATCC 24698 / 74-OR23-1A / CBS 708.71 / DSM 1257 / FGSC 987)), P0C581 (parent)
# chain: B1 partner
# partner: B1 chain
# Variants of: B1
# Details: with pan2_neucr par-1, P0C581
row,effect of a mutation on the interaction,Variant
1,disrupting interaction strength,V627E

# Variants of: B2
# Details: with pan2_drome PAN2, A1Z7K9
# pan2_drome PAN2, A1Z7K9, sequence (A1Z7K9 whole entry): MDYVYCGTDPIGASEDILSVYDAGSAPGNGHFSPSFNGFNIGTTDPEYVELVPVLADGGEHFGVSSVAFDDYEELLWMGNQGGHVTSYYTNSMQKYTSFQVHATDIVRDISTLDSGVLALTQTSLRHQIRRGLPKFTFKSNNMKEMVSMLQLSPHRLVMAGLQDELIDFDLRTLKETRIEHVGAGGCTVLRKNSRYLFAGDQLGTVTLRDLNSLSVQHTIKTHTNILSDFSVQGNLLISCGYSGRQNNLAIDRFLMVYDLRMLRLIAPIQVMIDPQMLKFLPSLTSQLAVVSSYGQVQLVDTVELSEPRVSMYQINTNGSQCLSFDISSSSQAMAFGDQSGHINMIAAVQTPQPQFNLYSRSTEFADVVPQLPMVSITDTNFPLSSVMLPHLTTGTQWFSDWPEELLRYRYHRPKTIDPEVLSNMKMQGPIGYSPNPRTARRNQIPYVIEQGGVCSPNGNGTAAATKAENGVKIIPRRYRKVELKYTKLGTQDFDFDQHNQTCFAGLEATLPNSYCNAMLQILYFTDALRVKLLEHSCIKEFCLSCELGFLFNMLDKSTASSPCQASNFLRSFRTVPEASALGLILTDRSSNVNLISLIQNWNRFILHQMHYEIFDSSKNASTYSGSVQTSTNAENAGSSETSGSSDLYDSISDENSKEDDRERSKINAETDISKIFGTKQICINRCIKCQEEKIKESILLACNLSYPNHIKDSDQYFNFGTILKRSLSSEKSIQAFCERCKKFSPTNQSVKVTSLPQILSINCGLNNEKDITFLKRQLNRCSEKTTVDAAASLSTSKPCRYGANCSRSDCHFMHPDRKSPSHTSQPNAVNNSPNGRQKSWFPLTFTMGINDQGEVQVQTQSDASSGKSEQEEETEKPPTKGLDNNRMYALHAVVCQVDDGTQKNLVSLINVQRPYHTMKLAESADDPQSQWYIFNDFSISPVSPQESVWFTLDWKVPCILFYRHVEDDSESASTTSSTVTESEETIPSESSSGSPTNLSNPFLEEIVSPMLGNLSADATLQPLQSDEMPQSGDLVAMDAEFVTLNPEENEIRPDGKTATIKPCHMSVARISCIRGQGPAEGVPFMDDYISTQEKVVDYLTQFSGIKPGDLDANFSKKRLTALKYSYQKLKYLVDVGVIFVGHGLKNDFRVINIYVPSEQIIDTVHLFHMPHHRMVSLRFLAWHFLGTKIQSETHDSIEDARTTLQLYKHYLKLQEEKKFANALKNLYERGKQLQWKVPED
row,effect of a mutation on the interaction,Variant
1,decreasing interaction strength,Y722A;H739A;R754A
2,decreasing interaction strength,W707A;G711E;Y722A;H739A;R754A

# Variants of: B3
# Details: with pan3_neucr par-2, Q7SDP4
row,effect of a mutation on the interaction,Variant
1,disrupting interaction strength,G97E
2,disrupting interaction strength,F62E
3,disrupting interaction strength,T60R
4,disrupting interaction strength,P99R
